Positions count from the first letter of the chain named. Numbers in names are those of the source.
B1: anti-lysozyme VHH D3-L11, wild type A79L (protein)
chain: DVQLVESGGGSVQAGGSLRLSCAASGSTDSIEYMTWFRQAPGKAREGVAALYTHTGNTYYTDSVKGRFTISQDKAKNMLYLRMDSVKSEDTAIYTCGATRKYVPVRFALDQSSYDYWGQGTQVTVSS
B2: anti-lysozyme VHH D3-L11, wild type A79W (protein)
chain: B1 chain with L79W
B3: anti-lysozyme VHH D3-L11, wild type A79I (protein)
chain: B1 chain with L79I
B4: anti-lysozyme VHH D3-L11, wild type A79R (protein)
chain: B1 chain with L79R
B5: anti-lysozyme VHH D3-L11, wild type A79N (protein)
chain: B1 chain with L79N
B6: anti-lysozyme VHH D3-L11, wild type A79T (protein)
chain: B1 chain with L79T
B7: anti-lysozyme VHH D3-L11, wild type A79Q (protein)
chain: B1 chain with L79Q
B8: anti-lysozyme VHH D3-L11, wild type A79F (protein)
chain: B1 chain with L79F
B9: anti-lysozyme VHH D3-L11, wild type A79H (protein)
chain: B1 chain with L79H
B10: anti-lysozyme VHH D3-L11, wild type A79M (protein)
chain: B1 chain with L79M
B11: anti-lysozyme VHH D3-L11, wild type A79Y (protein)
chain: B1 chain with L79Y
B12: anti-lysozyme VHH D3-L11, wild type A79V (protein)
chain: B1 chain with L79V
B13: anti-lysozyme VHH D3-L11, wild type A79C (protein)
chain: B1 chain with L79C
B14: anti-lysozyme VHH D3-L11, wild type A79S (protein)
chain: B1 chain with L79S
B15: anti-lysozyme VHH D3-L11, wild type G26I (protein)
chain: B1 chain with G26I, L79A
B16: anti-lysozyme VHH D3-L11, wild type A24L (protein)
chain: B1 chain with A24L, L79A
B17: anti-lysozyme VHH D3-L11, wild type G97F (protein)
chain: B1 chain with L79A, G97F

target: hen egg lysozyme, P00698; assay: SPR; conditions: chain shown with the change;; parent: est. 3.1e-12; read off a plot
Sequence (P00698 19-147): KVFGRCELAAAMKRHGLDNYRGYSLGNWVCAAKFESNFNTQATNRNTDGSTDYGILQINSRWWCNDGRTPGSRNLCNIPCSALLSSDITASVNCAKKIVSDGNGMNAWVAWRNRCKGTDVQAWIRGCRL

Going from B1 to B2, the Kd rises from 0.0067 nM to 0.015 nM (2.2-fold).

Compared with B3, B4 is 5.3-fold higher in Kd: 0.0049 nM for the first, 0.026 nM for the second.

Going from B5 to B6, the Kd rises from 0.0081 nM to 0.013 nM (1.6-fold).

Compared with B7, B8 is 1.7-fold higher in Kd: 0.0072 nM for the first, 0.012 nM for the second.

Compared with B9, B10 is 3.4-fold lower in Kd: 0.023 nM for the first, 0.0068 nM for the second. The second binds more tightly here.

First: B11
Second: B12
The Kd of the first is 1.5-fold higher: 0.0055 nM for the first, 0.0036 nM for the second.

First: B13
Second: B14
The Kd of the first is 3.2-fold lower: 0.0037 nM for the first, 0.012 nM for the second.

same assay, conditions: chain shown with the change;; parent: est. 3.3 pM; read off a plot

Compared with B15, B8 is 2.2-fold lower in Kd: 0.026 nM for the first, 0.012 nM for the second.

Going from B16 to B17, the Kd falls from 0.045 nM to 0.0062 nM (7.3-fold). The second binds more tightly here.

target: hen egg lysozyme, P00698; assay: ELISA; conditions: chain shown with the change;; parent: est. 0.90; read off a plot

B17 showed an EC50 of 3.2 µg/mL.

same assay, conditions: chain shown with the change;; parent: est. 0.92; read off a plot

First: B1
Second: B2
The EC50 of the first is 1300-fold lower: 1.5 µg/mL for the first, 1900 µg/mL for the second.

Compared with B3, B4 is 34-fold higher in EC50: 0.92 µg/mL for the first, 31 µg/mL for the second.

B5 and B7 are within 1.5-fold of each other in EC50: 6.7 µg/mL for the first, 9.5 µg/mL for the second.

Going from B9 to B10, the EC50 falls from 120 µg/mL to 4.2 µg/mL (29-fold).

Going from B12 to B13, the EC50 rises from 2.5 µg/mL to 10 µg/mL (4-fold).

B14 showed an EC50 of 7.6 µg/mL.

Reference: article PMC10039853
